Measurements from patent US20220177587A1, “METHODS AND USES OF VARIANT CD80 FUSION PROTEINS AND RELATED CONSTRUCTS” (Alpine Immune Sciences, Inc., priority 2018, published 2022).
Where a chain is given by its changes, count along the chain named. Numbers in names are those of the source.

Columns and labels:
[1] = biological target: huCTLA4 (Homo sapiens, UniProt P16410); test: Flow binding to CHO cells stably expressing CTLA4; design: huCTLA4 and huPD-L1, full-length mammalian surface expression constructs were generated; expressed in transfected cells; host or cells: CHO cells, lentiviral transduction, sorted to >98% purity; settings: CHO cells stably expressing CTLA4
Method: (§1) Binding of selected immunomodulatory fusion proteins to cognate binding partners was assessed. […] Cells were sorted in a Bio-Rad S3 Cell Sorter (Bio-Rad Corp., USA) to >98% purity. Jurkat/IL2 reporter cells, which endogenously express CD28, were used to detect binding to CD28.
(§2) For staining and analysis by flow cytometry, 100,000 cells of appropriate transfected cells were plated in 96-well round bottom plates. Cells were spun down and resuspended in staining buffer (phosphate buffered saline (PBS), 1% bovine serum albumin (BSA), and 0.1% sodium azide) for 20 minutes to block non-specific binding. […] Primary staining was performed on ice for 45 minutes, before washing cells in staining buffer twice. Phycoerythrin (PE)-conjugated anti-human Fc (Jackson ImmunoResearch, USA) was diluted 1:150, added to cells and incubated another 30 minutes on ice. Cells were then washed twice with 150 μL/well stain buffer, fixed in 2% formaldehyde/PBS, and analyzed on Intellicyt flow cytometer (Intellicyt Corp., USA). PE Mean Fluorescence Intensity (MFI) was calculated for each cell type with FlowJo Version 10 software (FlowJo LLC, USA).
(§3) Binding assays were carried out to assess the specificity and affinity of multivalent proteins to cell-expressed CTLA-4, CD28, and PD-L1 counter structures.
(§4) The EC50 for binding also was determined.

[2] = biological target: CD28 (Homo sapiens, UniProt P10747); test: Jurkat/IL2 + CHO/OKT3 +/- PD-L1 reporter assay: PD-L1-dependent CD28 costimulation; type: cell-based; design: host or cells: Jurkat cells expressing an IL-2-luciferase reporter; settings: Jurkat/IL2 + CHO/OKT3/PD-L1
Method: Jurkat cells were then plated at 50 μL/well for a total of 100,000 cells per well.
To each well, 25 μL of test protein was added to the Jurkat cells. […] The Jurkat cells with test or control proteins were incubated for 15 minutes at room temperature. CHO-derived artificial antigen presenting cells (aAPC) displaying transduced cell surface anti-CD3 single chain Fv (OKT3) (i.e., no PD-L1), or OKT3 and PD-L1 (i.e., +PD-L1), were brought to 0.8×10^6 cells/mL, and 25 μL of cells were added to each well, bringing the final volume of each well to 100 μL. […] Jurkat cells and CHO cells were incubated for 5 hours at 37 degrees Celsius in a humidified 5% CO2 incubation chamber. Plates were then removed from the incubator and acclimated to room temperature for 15 minutes. 100 μL of a cell lysis and luciferase substrate solution (BioGlo luciferase reagent, Promega) were added to each well and the plates were incubated on an orbital shaker for 10 minutes. Luminescence was measured with a 1 second per well integration time using a BioTek Cytation luminometer, and a relative luminescence value (RLU) was determined for each test sample.

[3] = biological target: huPD-L1 (Homo sapiens, UniProt Q9NZQ7); test: Flow binding to CHO cells stably expressing PD-L1; design: huCTLA4 and huPD-L1, full-length mammalian surface expression constructs were generated; expressed in transfected cells; host or cells: CHO cells, lentiviral transduction, sorted to >98% purity; settings: CHO cells stably expressing PD-L1
Method: as §1, §2, §3, §4

Chain of huCTLA4 (P16410 36-223): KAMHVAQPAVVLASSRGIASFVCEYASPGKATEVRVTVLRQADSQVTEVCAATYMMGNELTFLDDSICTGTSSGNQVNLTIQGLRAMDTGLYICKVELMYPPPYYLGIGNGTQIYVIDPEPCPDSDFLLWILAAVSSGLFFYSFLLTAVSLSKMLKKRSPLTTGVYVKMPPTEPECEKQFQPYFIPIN
Chain of huPD-L1 (Q9NZQ7 19-290): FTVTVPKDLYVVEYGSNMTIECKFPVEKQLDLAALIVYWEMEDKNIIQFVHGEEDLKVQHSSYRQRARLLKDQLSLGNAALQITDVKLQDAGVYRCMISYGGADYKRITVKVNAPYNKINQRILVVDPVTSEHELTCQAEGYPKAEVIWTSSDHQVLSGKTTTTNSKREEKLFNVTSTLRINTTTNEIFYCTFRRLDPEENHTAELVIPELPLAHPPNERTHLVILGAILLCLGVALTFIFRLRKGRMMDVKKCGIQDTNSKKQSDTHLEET

B1: E35D/M38I/M43V/M47V/N48R/L85Q (protein)
chain: VIHVTKEVKEVATLSCGHNVSVEELAQTRIYWQKDKKTVLTMVSGDVRIWPEYKNRTIFDITNNLSIVILALRPSDEGTYECVVQKYEKDAFKREHLAEVTLSVKAD
[1]; Table E4, 33.3 nM variant CD80 IgV-Fc
  CTLA4 MFI at 33.3 nM: 203938

B2: E35D/M43I/M47L/L85M (protein)
chain: B1 chain with T38M, V43I, V47L, R48N, Q85M
[2]; Table E12, 5.0 nM
  Relative Luciferase Units (RLU), CD80 Cone 5.0 nM: 1427 RLU
[1]; Table E10, 33.3 nM
  CTLA4 MFI at 33.3 nM: 24584

B3: E35D/M47L/A71G (protein)
chain: B1 chain with T38M, V43M, V47L, R48N, A71G, Q85L
[2]; Table E12, 5.0 nM
  Relative Luciferase Units (RLU), CD80 Cone 5.0 nM: 1954 RLU
[1]; Table E10, 33.3 nM
  CTLA4 MFI at 33.3 nM: 20576

B4: H18Y/E35D/M47V/N48K (protein)
chain: B1 chain with H18Y, T38M, V43M, R48K, Q85L
[2]; Table E12, 5.0 nM
  Relative Luciferase Units (RLU), CD80 Cone 5.0 nM: 2146 RLU
[3]; Table E10, 33.3 nM
  PD-L1 MFI at 33.3 nM: 6462

B5: H18Y/E35D/V68M/A71G/R94Q/E95V (protein, UniProt P33681 35-288, looked up, variant H18Y E35D V68M A71G R94Q E95V)
T-lymphocyte activation …: VIHVTKEVKEVATLSCGYNVSVEELAQTRIYWQKDKKMVLTMMSGDMNIWPEYKNRTIFDITNNLSIMILGLRPSDEGTYECVVLKYEKDAFKQVHLAEVTLSVKADFPTPSISDFEIPTSNIRRIICSTSGGFPEPHLSWLENGEELNAINTTVSQDPETELYAVSSKLDFNMTTNHSFMCLIKYGHLRVNQTFNWNTTKQEHFPDNLLPSWAITLISVNGIFVICCLTYCFAPRCRERRRNERLRRESVRPV
modifications: Fc fusion
[2]; Table E13, 5.0 nM
  Relative Luciferase Units (RLU), CD80 Cone 5.0 nM: 183 RLU
[2]; Table E17, consensus variants, 5.0 nM
  Relative Luciferase Units (RLU), CD80 Cone 5.0 nM: 1968 RLU
[1]; Table E11, 33.3 nM
  CTLA4 MFI at 33.3 nM: 18281
[1]; Table E16, consensus variants, 33.3 nM
  CTLA4 MFI at 33.3 nM: 19396

B6: V22D/E24D/E35D/M47L/V68M/L85M/D90G (protein)
chain: VIHVTKEVKEVATLSCGHNVSDEDLAQTRIYWQKDKKMVLTMMSGDLNIWPEYKNRTIFDITNNLSIMILALRPSDEGTYECVVMKYEKGAFKREHLAEVTLSVKADFPTPSISDFETPTSNIRRIICSTSGGFPEPHLSWLENGEELNAINTTVSQDPETELYAVSSKLDFNMTTNHSFMCLIKYGHLRVNQTFNWNTTKQEHFPDN
modifications: CD80 v384 ECD
[2]; Table E13, 5.0 nM
  Relative Luciferase Units (RLU), CD80 Cone 5.0 nM: 963 RLU
[3]; Table E11, 33.3 nM
  PD-L1 MFI at 33.3 nM: 19047

B7: E35D/D46E/M47L/V68M/A71G/Y87C/K93R (protein, UniProt P33681 35-288, looked up, variant E35D D46E M47L V68M A71G Y87C K93R)
T-lymphocyte activation …: B5 T-lymphocyte activation … with Y18H, D46E, M47L, Y87C, K93R, Q94R, V95E
[2]; Table E13, 5.0 nM
  Relative Luciferase Units (RLU), CD80 Cone 5.0 nM: 1198 RLU

B8: E35D/M47V/N48K/V68M/L85M (protein, UniProt P33681 35-288, looked up, variant E35D M47V N48K V68M L85M)
T-lymphocyte activation …: B5 T-lymphocyte activation … with Y18H, M47V, N48K, G71A, L85M, Q94R, V95E
[2]; Table E13, 5.0 nM
  Fold Increase over WT CD80-IgV-Fe: 3.0
  Relative Luciferase Units (RLU), CD80 Cone 5.0 nM: 1203 RLU

B9: T13R/E35D/M47L/V68M (protein, UniProt P33681 35-288, looked up, variant T13R E35D M47L V68M)
T-lymphocyte activation …: B5 T-lymphocyte activation … with T13R, Y18H, M47L, G71A, Q94R, V95E
[2]; Table E13, 5.0 nM
  Fold Increase over WT CD80-IgV-Fe: 2.6
  Relative Luciferase Units (RLU), CD80 Cone 5.0 nM: 1021 RLU

B10: T13R/Q27L/Q33L/E35D/T41S/M47V/N48KN68M/L85M (protein)
chain: B1 chain with T13R, Q27L, Q33L, T38M, T41S, V43M, R48K, V68M, Q85M
[2]; Table E13, 5.0 nM
  Fold Increase over WT CD80-IgV-Fe: 0.4
  Relative Luciferase Units (RLU), CD80 Cone 5.0 nM: 170 RLU

B11: E35D/D46V (protein)
chain: B1 chain with T38M, V43M, D46V, V47M, R48N, Q85L
[3]; Table E19, 33.3 nM
  PD-L1 MFI at 33.3 nM: 3971

B12: D46V/M47L (protein)
chain: B1 chain with D35E, T38M, V43M, D46V, V47L, R48N, Q85L
[1]; Table E19, 33.3 nM
  CTLA4 MFI at 33.3 nM: 49711

B13: N48K/V68M/K89N (protein)
chain: B1 chain with D35E, T38M, V43M, V47M, R48K, V68M, Q85L, K89N
[1]; Table E19, 33.3 nM
  CTLA4 MFI at 33.3 nM: 19129
[3]; Table E19, 33.3 nM
  PD-L1 MFI at 33.3 nM: 11464

B14: M47V/N48K/V68M/K89N (protein)
chain: B1 chain with D35E, T38M, V43M, R48K, V68M, Q85L, K89N
[2]; Table E21, CD80 Conc 5.0 nM
  Relative Luciferase Units (RLU), CD80 Conc 5.0 nM: 671 RLU
[3]; Table E19, 33.3 nM
  PD-L1 MFI at 33.3 nM: 23666

B15: H18Y/M47L/V68M/A71G (protein)
chain: B1 chain with H18Y, D35E, T38M, V43M, V47L, R48N, V68M, A71G, Q85L
[3]; Table E20, 33.3 nM
  PD-L1 MFI at 33.3 nM: 28478

B16: D46V/M47L/V68M/L85Q (protein)
chain: B1 chain with D35E, T38M, V43M, D46V, V47L, R48N, V68M
[2]; Table E21, CD80 Conc 5.0 nM
  Relative Luciferase Units (RLU), CD80 Conc 5.0 nM: 654 RLU

B17: E35D/M47V/V68M (protein)
chain: B1 chain with T38M, V43M, R48N, V68M, Q85L
[2]; Table E21, CD80 Conc 5.0 nM
  Relative Luciferase Units (RLU), CD80 Conc 5.0 nM: 841 RLU

B18: H18Y/E35D/M47L/A71G (protein)
chain: B1 chain with H18Y, T38M, V43M, V47L, R48N, A71G, Q85L
[2]; Table E22, CD80 Conc 5.0 nM
  Relative Luciferase Units (RLU), CD80 Conc 5.0 nM: 1387 RLU

B19: H18V/A26N/E35D/M47V/V68M/A71G (protein, UniProt P33681 35-288, looked up, variant H18V A26N E35D M47V V68M A71G)
T-lymphocyte activation …: B5 T-lymphocyte activation … with Y18V, A26N, M47V, Q94R, V95E
[2]; Table E24, 5.0 nM
  Relative Luciferase Units (RLU), CD80 Conc 5.0 nM: 985 RLU
[3]; Table E23, CD80 IgV-Fc (inert) at 33.3 nM
  PD-L1 MFI at 33.3 nM: 68165

B20: H181/A26P/E35D/M47V/V68M/A71G (protein)
chain: B1 chain with H18I, A26P, T38M, V43M, R48N, V68M, A71G, Q85L
[2]; Table E24, 5.0 nM
  Fold Increase over WT CD80-IgV-Fe: 5.4
  Relative Luciferase Units (RLU), CD80 Conc 5.0 nM: 916 RLU

B21: H18Y/A26P/E35D/M47T/V68M/A71G (protein)
chain: B1 chain with H18Y, A26P, T38M, V43M, V47I, R48N, V68M, A71G, Q85L
[2]; Table E24, 5.0 nM
  Fold Increase over WT CD80-IgV-Fe: 4.5
  Relative Luciferase Units (RLU), CD80 Conc 5.0 nM: 761 RLU
